Test results reported in PMC9008408.

B1: TIM-4: TM (protein)
parent chain: MSKEPLILWLMIEFWWLYLTPVTSETVVTEVLGHRVTLPCLYSSWSHNSNSMCWGKDQCPYSGCKEALIRTDGMRVTSRKSAKYRLQGTIPRGDVSLTILNPSESDSGVYCCRIEVPGWFNDVKINVRLNLQRASTTTHRTATTTTRRTTTTSPTTTRQMTTTPAALPTTVVTTPDLTTGTPLQMTTIAVFTTANTCLSLTPSTLPEEATGLLTPEPSKEGPILTAESETVLPSDSWSSVESTSADTVLLTSKESKVWDLPSTSHVSMWKTSDSVSSPQPGASDTAVPEQNKTTKTGQMDGIPMSMKNEMPISQLLMIIAPSLGFVLFALFVAFLLRGKLMETYCSQKHTRLDYIGDSKNVLNDVQHGREDEDGLFTL
B2: TIM-4: N291Q (protein)
parent chain: B1 parent chain

Legend:
[1] = anti-Flag IP, ubiquitin blot, MG132, A549-LV-TIM-4-Flag; details: glycan lost; control: no TM
[2] = CHX chase, western blot of remaining protein, HEK293; details: glycan lost; control: wild type TIM-4, no TM
[3] = confocal immunofluorescence, mCherry-Sec61b ER marker, A549; details: glycan lost; control: wild type TIM-4
[4] = anti-HA IP, ubiquitin blot, MG132, A549; details: glycan lost; control: wild type TIM-4

| Protein | other: ubiquitination [1] | degradation_or_half_life [2] | localisation_or_trafficking [3] | other: ubiquitination [4] |
| --- | --- | --- | --- | --- |
| B1 | increases | decreases |  |  |
| B2 |  |  | changes, co-localized with the ER-tracker compared with wild type TIM-4 | increases |
